In assay [1] the target is T1, INCENP N-terminal domain (1-58), His- and Avi-tagged, biotinylated (UniProt Q9NQS7 1-58, biotinylated (Avi-tag, co-expressed E. coli biotin ligase BirA)).
T1 construct: range 1-58; Expressed in E. coli BL21(DE3); also called INC-N; INCENP N-terminal domain (AA 1-58); not shown: His-tag and Avi-tag
T1 sequence (looked up): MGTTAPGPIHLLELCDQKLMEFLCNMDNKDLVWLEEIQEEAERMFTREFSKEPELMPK
Description: single-point protein ELISA, 200 nM Fab on 50 nM immobilised biotinylated target, protein L-HRP, A450. The procedure: To rapidly reconfirm the binding and specificity of the obtained Fabs after reformatting into the expression vectors single-point Fab ELISA was performed (FIG. 2). Briefly, 50 nM Avi-tagged targets were immobilized on the prepared NAV-coated and blocked with 0.5% BSA in PBS 96-well ELISA plates. The target coated plates were washed with appropriate buffer (TBST or PBST) and were incubated with 200 nM Fab for 20 minutes and then washed. The washed plates were incubated with protein L conjugated with HRP (1:5000 diluted in TBST) for 30 minutes. Plates were washed and the reaction was developed using the TMB chromogenic substrate (Thermofisher) and subsequently quenched with 1M HCl. Absorbance was read at 450 nm on Epoch plate reader.

Assay [2] concerns the target T2, INCENP displayed on the surface of cancer cells (UniProt Q9NQS7 1-918, limits assumed).
T2 construct: whole, on cells; The sentence says 'various cancer cell lines'; also called cell surface INCENP
Kind of assay: flow cytometry, 200 nM Fab on MDA-231 breast cancer cells, anti-human F(ab')2-A647 secondary, MFI. Here is the method: (§1) Human or murine tumor cells were trypsinized, washed and resuspended in Flow buffer (1×PBS supplemented with 2% FBS) and added to a 96-well plate (#3799, Costar). 200 nM primary CPC Fab was mixed with 0.5M cells and incubated at 37 C for 20 min. Cells were washed with Flow buffer and stained with anti-human-FAB′2-A647 secondary antibody (#109-605-006, Jackson, 1:200) for 20 min at room temperature and washed again. Samples were analyzed by flow cytometry using CytoFLEX (Beckman Coulter) and mean fluorescence intensity (MFI) data was extracted using the FlowJo software (FIG. 4A-E, FIG. 5). Human peripheral blood mononuclear cells (PBMCs) derived from a single patient were used as a source of healthy human cells. PBMCs were counted, split and spun down 400×g 5 min. Cells were resuspended in Flow buffer (1×PBS supplemented with 2% FBS) and pre-incubated with TruStain FcX (1:20, Biolegend 422302) for 10 min at 37 C, followed by 200 nM primary Fab incubation at 37 for 20 min. Cells were washed twice and stained with secondary antibody (Alexa Fluor 647 AffiniPure Goat Anti-Human IgG, F(ab′)2 fragment specific, #109-605-006, Jackson, 1:200), for 20 min at RT, washed twice and analyzed by using CytoFLEX (Beckman Coulter). Mean fluorescence intensity (MFI) data was extracted using the FlowJo software (FIG. 4F).

In assay [3] the target is T1, INCENP N-terminal domain (1-58), His- …. Description: SPR, target immobilised on NTA chip via His-tag, two-fold Fab dilutions from 100 nM, 1:1 Langmuir fit. The procedure: The targets were immobilized onto a nitrilotriacetic acid (NTA) sensor chip via His-tag. 2-fold serial dilutions of the Fab were injected following ligand immobilization on the sensor chip. For each kinetic assay at least five dilutions of the Fab were tested. The data were fitted using 1:1 Langmuir Model to obtain the on-rate, off-rate and the affinity (KD) of the Fab-target interaction. (FIG. 3).

The target of assay [4] is T3, INCENP on the surface of murine tumor cells (Mus musculus, UniProt Q9WU62).
T3 construct: kept apart from m4 because the cells are murine; also called cell surface INCENP on CT26, MC38 and 4T1 cells
T3 sequence (single chain, looked up): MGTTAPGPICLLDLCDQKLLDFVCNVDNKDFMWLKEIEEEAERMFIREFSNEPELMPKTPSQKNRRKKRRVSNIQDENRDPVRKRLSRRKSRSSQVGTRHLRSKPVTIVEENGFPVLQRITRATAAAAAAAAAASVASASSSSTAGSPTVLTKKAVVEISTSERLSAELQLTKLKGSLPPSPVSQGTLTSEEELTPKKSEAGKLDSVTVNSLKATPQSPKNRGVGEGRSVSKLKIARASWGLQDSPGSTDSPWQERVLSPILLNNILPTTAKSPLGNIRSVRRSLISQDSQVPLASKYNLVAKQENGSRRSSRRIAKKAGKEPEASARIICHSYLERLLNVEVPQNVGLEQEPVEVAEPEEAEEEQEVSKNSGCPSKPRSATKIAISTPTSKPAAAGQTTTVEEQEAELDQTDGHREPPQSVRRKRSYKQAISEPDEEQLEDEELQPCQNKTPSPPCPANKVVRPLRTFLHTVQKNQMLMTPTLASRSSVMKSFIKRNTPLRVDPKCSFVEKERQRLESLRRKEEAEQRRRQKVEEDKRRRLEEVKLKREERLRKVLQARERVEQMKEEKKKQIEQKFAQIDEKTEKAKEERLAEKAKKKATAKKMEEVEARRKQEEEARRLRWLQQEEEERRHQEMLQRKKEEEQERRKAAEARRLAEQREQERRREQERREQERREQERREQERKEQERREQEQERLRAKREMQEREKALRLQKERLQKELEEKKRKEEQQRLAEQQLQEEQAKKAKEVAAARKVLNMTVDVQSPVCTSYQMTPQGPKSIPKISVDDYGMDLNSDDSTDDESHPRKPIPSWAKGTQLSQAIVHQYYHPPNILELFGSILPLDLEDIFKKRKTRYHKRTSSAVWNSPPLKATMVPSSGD
Description: flow cytometry, 200 nM Fab on CT26 murine colorectal carcinoma cells, anti-human F(ab')2-A647 secondary, MFI [CT26]. Here is the method:
as §1

Assay [5] has as its target T2, INCENP displayed on the surface of …. Description: flow cytometry, 200 nM Fab on MCF7 breast cancer cells, anti-human F(ab')2-A647 secondary, MFI. The procedure: as §1

Results on twelve molecules are retold here after patent publication US20240408138A1 (UNIVERSITY OF CHICAGO, published 2024).

Substitutions are numbered along the chain they refer to.

B1: INC-N-01 (Fab, V domains shown)
VH: EVQLVESGGGLVQPGGSLRLSCAASGFNVYYYSIHWVRQAPGKGLEWVASIYPSSGSTYYADSVKGRFTISADTSKNTAYLQMNSLRAEDTAVYYCARQWLYMLWPMWGLDYWGQGTLVTVSS
VL: DIQMTQSPSSLSASVGDRVTITCRASQSVSSAVAWYQQKPGKAPKLLIYSASSLYSGVPSRFSGSRSGTDFTLTISSLQPEDFATYYCQQSYYWPITFGQGTKVEIKR
notes: also called INC-N-01 Fab
B1: the binding result in assay [1] is “binds”.

B2: INC-N-35 (Fab, V domains shown)
VH: EVQLVESGGGLVQPGGSLRLSCAASGFNFYSYSIHWVRQAPGKGLEWVASISSSSGSTSYADSVKGRFTISADTSKNTAYLQMNSLRAEDTAVYYCARHFHNPYSWDYWYGWYTALDYWGQGTLVTVSS
VL: B1 VL with Y92S, Y93S, W94S, P95L
notes: also called INC-N-35 Fab
Consider B2, for which the binding result in assay [1] and in assay [2] was “binds” throughout.

B3: INC-N-13 (Fab, V domains shown)
VH: EVQLVESGGGLVQPGGSLRLSCAASGFNVSYYSIHWVRQAPGKGLEWVASIYPYSGSTYYADSVKGRFTISADTSKNTAYLQMNSLRAEDTAVYYCARYPYYVYWYYWWYYALDYWGQGTLVTVSS
VL: B1 VL with Y92W, Y93S, W94Y
notes: also called INC-N-13 Fab
Turning to B3, in assay [3], the Kd is 20 nM, the koff was determined as 0.0029 s⁻¹ and the kon is 140000 M⁻¹ s⁻¹.

B4: INC-N-38 (Fab, V domains shown)
VH: EVQLVESGGGLVQPGGSLRLSCAASGFNVYSSSIHWVRQAPGKGLEWVAYISSYSGYTYYADSVKGRFTISADTSKNTAYLQMNSLRAEDTAVYYCARTIYSSSYFYTWFIYGAAFDYWGQGTLVTVSS
VL: B1 VL with Y92W, Y93M, W94Y
notes: also called INC-N-38 Fab
In assay [3], B4 returned a Kd of 1.2 nM, a dissociation rate constant (koff) of 0.0005 s⁻¹ and a kon of 420000 M⁻¹ s⁻¹.

B5: INC-N-04 (Fab, V domains shown)
VH: EVQLVESGGGLVQPGGSLRLSCAASGFNFYSYSIHWVRQAPGKGLEWVASIYSYSGYTYYADSVKGRFTISADTSKNTAYLQMNSLRAEDTAVYYCARYPLYFQYRKYYGIDYWGQGTLVTVSS
VL: B1 VL with S91G, Y92W, W94Y
notes: also called INC-N-04 Fab
In assay [3], B5 showed a Kd of 14.8 nM, a koff of 0.011 s⁻¹ and a kon of 760000 M⁻¹ s⁻¹.

B6: INC-N-06 (Fab, V domains shown)
VH: EVQLVESGGGLVQPGGSLRLSCAASGFNISYSSIHWVRQAPGKGLEWVASIYPYSGSTYYADSVKGRFTISADTSKNTAYLQMNSLRAEDTAVYYCARWSLYGKWYYWWYGLDYWGQGTLVTVSS
VL: B1 VL with S91G, Y92S, W94Y
notes: also called INC-N-06 Fab
In assay [3], B6 returned a Kd of 6.3 nM, a koff of 0.0049 s⁻¹ and a kon of 770000 M⁻¹ s⁻¹. Further, in assay [4], the binding result is on record as “binds”.

B7: INC-N-19 (Fab, V domains shown)
VH: EVQLVESGGGLVQPGGSLRLSCAASGFNVYYSYIHWVRQAPGKGLEWVASIYPYSGYTSYADSVKGRFTISADTSKNTAYLQMNSLRAEDTAVYYCARWRWPGLQFGYGMDYWGQGTLVTVSS
VL: B1 VL with Y93W, I96L
notes: also called INC-N-19 Fab
As for B7, in assay [1], the binding result is reported as “binds”.

B8: INC-N-11 (Fab, V domains shown)
VH: EVQLVESGGGLVQPGGSLRLSCAASGFNVSYYSIHWVRQAPGKGLEWVASIYPSSGSTYYADSVKGRFTISADTSKNTAYLQMNSLRAEDTAVYYCARMYPSWMLYPYYMFAGMDYWGQGTLVTVSS
VL: B1 VL with S91R, Y92W, Y93V, W94Y
notes: also called INC-N-11 Fab
Turning to B8, in assay [3], binding was characterised by a dissociation constant (Kd) of 4.2 nM, the koff amounted to 0.0031 s⁻¹ and the kon amounted to 740000 M⁻¹ s⁻¹.

B9: INC-N-34 (Fab, V domains shown)
VH: EVQLVESGGGLVQPGGSLRLSCAASGFNVSSSSIHWVRQAPGKGLEWVASIYPSSGYTSYADSVKGRFTISADTSKNTAYLQMNSLRAEDTAVYYCARKLAYYWGAQWSYSGYKGMDYWGQGTLVTVSS
VL: B1 VL with Y93W, W94Y
notes: also called INC-N-34 Fab
Take B9: the binding result in assay [1] and in assay [5] was “binds” in each case.

B10: INC-N-12 (Fab, V domains shown)
VH: EVQLVESGGGLVQPGGSLRLSCAASGFNFSSSSIHWVRQAPGKGLEWVASIYSYSGSTYYADSVKGRFTISADTSKNTAYLQMNSLRAEDTAVYYCARYHWYYYWYWGGVSPAMDYWGQGTLVTVSS
VL: B1 VL with S91M, Y92R, W94Y
notes: also called INC-N-12 Fab
Take B10: the binding result in assay [1] is “binds”.

B11: INC-N-08 (Fab, V domains shown)
VH: EVQLVESGGGLVQPGGSLRLSCAASGFNFSSSSIHWVRQAPGKGLEWVASIYSYYGSTSYADSVKGRFTISADTSKNTAYLQMNSLRAEDTAVYYCARWMYKGYIFYQYFGLDYWGQGTLVTVSS
VL: B1 VL with Y92F, Y93S, W94N, P95L
notes: also called INC-N-08 Fab
Regarding B11, in assay [1], the binding result is “binds”.

B12: INC-N-14 (Fab, V domains shown)
VH: EVQLVESGGGLVQPGGSLRLSCAASGFNVSSYSIHWVRQAPGKGLEWVASIYPSSGSTYYADSVKGRFTISADTSKNTAYLQMNSLRAEDTAVYYCARKGYGWFYYYIEWYSPYAFDYWGQGTLVTVSS
VL: B1 VL with W94Y, I96V
notes: light chain shared with INC-N-18; also called INC-N-14 Fab
B12: in assay [1], the binding result was “binds”.
